This is an account of results in paper PMC3608532, “Characterization of a Single-Chain Variable Fragment Recognizing a Linear Epitope of Aβ: A Biotechnical Tool for Studies on Alzheimer’s Disease?” (PLoS ONE, 2013).

Holding throughout (assay): SPR; Biacore X; Aβ peptides coupled via the C-terminal cysteine to a CM5 chip; IC16 injected (10 to 1000 nM), 20 µl/min, PBS, 25°C; global fit, bivalent binding model
What all share (settings): both partners purified
On the technique in general: In SPR one partner is held on a chip, and binding of the other changes the refractive index at the surface.

One assay addresses T1, Aβ(3-8)-GSGSC (human).
T1 construct: amyloid-β peptide (Aβ), cut from the amyloid precursor protein (APP), human, residues 3-8; C-terminal spacer with the cysteine by which the peptide was coupled to the chip; source: synthetic peptide, bought: JPT
T1 chain: EFRHDSGSGSC

The target of another assay is T2, Aβ(2-8)-GSGSC (human).
T2 construct: amyloid-β peptide (Aβ), cut from the amyloid precursor protein (APP), human, residues 2-8; C-terminal spacer with the cysteine by which the peptide was coupled to the chip; source: synthetic peptide, bought: JPT
T2 chain: AEFRHDSGSGSC

The target of the next assay is T3, Aβ(1-8)-GSGSC (human).
T3 construct: amyloid-β peptide (Aβ), cut from the amyloid precursor protein (APP), human, residues 1-8; C-terminal spacer with the cysteine by which the peptide was coupled to the chip; source: synthetic peptide, bought: JPT
T3 chain: DAEFRHDSGSGSC

B1: monoclonal IgG2a antibody IC16 (antibody, V domains shown)
VH: QVTLKESGPGILQPSQTLSLTCSFSGFSLSTSGMGVSWIRQPSGKGLEWLAHIFWDDDKNYNPSLKSRLTVSKDTSRNQVFLKITSVDTSDTATYYCARSPHLRGYDVDFDYWGQGTTLTVSS
VL: DVLMTQTPLSLPVSLGDQASISCRSSQSLVHSNGNTYLHWYLQKPGQSPKVLIYKVSNRFSGVPDRFSGSGSGTDFTLKISRVEAEDLGVYFCSQSTHVPLTFGAGTKLELK
notes: IgG2a; raised in a PrP knockout mouse against KLH Aβ(1-16); also called monoclonal parent antibody IC16; source: IC16 hybridoma (mouse); copies: 2 + 2
The term koff denotes the rate constant with which the complex falls apart. A low value points to slow dissociation. What is called kon is a measure of how fast the partners come together. As for B1, in the assay with Aβ(3-8)-GSGSC, the Kd is 82 nM, the koff came out at 0.00343 s⁻¹ and the on-rate constant (kon) worked out at 41700 M⁻¹ s⁻¹. In the assay with Aβ(2-8)-GSGSC, this molecule yielded a Kd of 32 nM, a koff of 0.00154 s⁻¹ and a kon of 48500 M⁻¹ s⁻¹. In the assay with Aβ(1-8)-GSGSC, this molecule showed a Kd of 51 nM, a koff of 0.0018 s⁻¹ and an on-rate constant (kon) of 35000 M⁻¹ s⁻¹.
